Measurements reported in the nanobody polyreactivity screen of Harvey et al. (2022).

Assay: yeast display, Sf9 membrane polyspecificity reagent, FACS + sequencing; frameworks hold sequencing errors
Outline: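 Nanobodies came from a synthetic yeast display library in Saccharomyces cerevisiae BJ5465, induced with galactose for 36–48 hours and stained for 1 hour at 4 °C with 10% biotinylated, detergent-solubilized Sf9 membrane reagent. Cells were enriched on streptavidin microbeads and then FACS-sorted, with low and high (top ~1%) gates set on anti-HA fluorescence for expression and streptavidin fluorescence for reagent binding. Each polyreactivity label reflects the gate a clone came from. Genes were amplified by colony PCR, sequenced by MiSeq 2 × 250 and filtered by CDR length.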

Sequence | polyreactivity (PSR sort gate)
QVQLVDSGGGLVQGGGSLRLSCADSGYIFGRNAMGWYRQATGKEREFVAALSSSGSSTYYADSVKGRFTISRDNEKNTDYLQLNSLKPEDTAVDYCNAVRYYLAVPYDSWGQGTQVTVSS | high polyreactivity
QVQLVDSGGGVVQAGGSLRLSCAASGFIFHRYAMGWYRPAPGKERELVASITRSGGSTYYADSVKGRFTISRDNAKNTVYLQMNSLKPEDTAVYYCAAQLPAYYKYPRHDYWGQGTQVTVSS | high polyreactivity
QVQLVDSGGVLVQAVGSLRLSCAASGIIFDWYAMGWYRQAPGKERELVAAITANSDSTYYADSVNGRFTISRDNAKNTVYLQMNSLKPEDTAVYYCAARRQHRGANGGDYCGQGTQVTVSS | high polyreactivity
QVQLVDSGPGLVQAGGSLRLSCAASGGTFQPNARGCYRQAPGKERELVAAISGSGDSTYYADSVKGRFTISRDNAKNTVYLQMNSLKPEDTAVYYCNAYFWFSRYAWGDTSYDYWGQGTQVTVSS | low polyreactivity
QVQLVDSGVGLVQAGGRLSLSCAASGLIFDFYAMGGYRQAPGKERELVATISWSGGTTSYADSVKGLFTISRDNAKNTVYIQMNSLKPEDTAVYYCAADGFQYTLGNYYWGQGTQVTLSS | high polyreactivity
QVQLVDSRGGLVQAGGSLRLSCAASGRTFYRYAKGWDRPAPGKERDLVAVITSGSRTKYADSVKGRFTISRDTAKITVYLQMKSLKPEDTAVYSCAARGLALEGKSSGEYWGQGTQVTVSS | high polyreactivity
QVQLVDSRGGLVQAGGSLRLSCAASGSIFSYYAMGWYRQAPGKEMELVAAITSSDGSTYYPDSVKGRFTISRDNAKNTVYLQINSLKPEDTAVYDCKAVRKYWLLGRYDYWGQGTQVTVSS | high polyreactivity
QVQLVDSWGGLVQAGASLRLSCAASGNTYSSYAMGWYRKAPGKERELVASITGRGGSTYYSDSVKGRFTISRDNAKNIVYLQMNSLKPEDTAVYYCTAKRFYITDDPLDYFYWGQCTQVTVSS | high polyreactivity
QVQLVDTAGGLVQAGGILRLSCAASGSTMYGYAMGWYRQTPGKERELVAAINTGGSTNYADSVKGRFTISRDNAKNTVYLQMNSLKPDDTAVYYCAASYSLSFWDKDDYWGQGTQVTVSS | low polyreactivity
QVQLVDTGGGLGQAGGSLRLSCAASGSTFFPYAMGWYRQAPGKEREFVAGISSDGGTSYADSVKGRFTISRDNAKNTVYLQMNSLKPEDTAVYYCAALQADRDRYPEFDLMDYWGQGTQVSVSS | low polyreactivity
QVQLVDTGGGLVQAGGSLRLICAASGSIFKIYAMGWYRQAPGKERELVAAISSSGGSTYYADSVKGRFTISRDNAKNTVYLQMNCLKPEDTAVYYCAAGQSWRKNAYRYDYWGQGTQVTVSS | high polyreactivity
QVQLVEAGGGLVQAGGSLRLSCAAAGRTFSANALGWSRQAPGKERELVATITLRGGSTNYADSVKGPFTISRDHAKNTVYLQINSLKPEDTAVYDCNAYVNANVRRAYWGFDYWGQGTHVTVSS | high polyreactivity
QVQLVEAGGGLVQAGGSLRLSCAASGFIFSSNAMGWYRQAPGKERELVAGITASGVSTYYADSVKGRFTISRDNAKNTVYLQMNSLKPEDTAVYDCAALGLYYYFYSQYIAWDDYWGQGTQVTVSS | low polyreactivity
QVQLVEAGGGLVQAGGSLRLSCAASGGTFTAYAMGWYRQAPGKERELVAAISASGDSTYYADSVKGRFTISRDNAKNTVYLQMNSLKPEDTAVYYCNADWYRTGRRGSDYWGQGTQVTVSS | low polyreactivity
QVQLVEAGGGLVQAGGSLRLSCAASGRIIVRNAMGWYLQPPGKESELVAAISWSSGGTYYADSVKGRFTISRDNAKNTVYLQMNSLKPEDTAVYYCNADPSRAGDYWGQGTQVTVSS | low polyreactivity
QVQLVEAGGGLVQAGGSLRLSCAASGRILRYYTMGWYRPAPGKERELVAAISRRGTSTHYADSVKGRFTISRDHAKNTVYLQMNSLKPEDTAVYYCAADPSVWSDYYYWGQGTQVTVSS | high polyreactivity
QVQLVEAGGGLVQAGGSLRLSCAASGRTFGSNAMGWYRQAPGKERELVAVITTSGGSTYYADSVKGRFTISRDNAKNTVYLQMNSLKPEDTAVYYCAKRVATGYIWYGYGYWGQGTQVTVSS | high polyreactivity
QVQLVEAGGGLVQAGGSLRLSCAASGRTFLYYDMGRYRQAPGKERELVAVITLRGGRTYYADSVKGRFTISRDNAKNTVYLQMNILKPEDTAVYYCAKDYSRGYNYWGQGTQVTVSS | high polyreactivity
QVQLVEAGGGLVQAGGSLRLSCAASGSIFFIYAMGWYRQAPGKERELVAAITSGDRTYYADSVKGRFTISRDNAKNTVYLQMNSLKPEDTAVYYCNADYYISYWGQGTQVTVSS | low polyreactivity
QVQLVEAGGGLVQAGGSLRLSCAASGYIGGNAMGWYRQAPGKERELVANISRSGGSTYYADSVKGRFTISRDNAKNTVYLQMNSLKPEDTAVYYCAAVSYGKYHWGMYYWGQGTQVTVSS | high polyreactivity
QVQLVEAGGRLVQAGGSLRLSCAASGGTFGTNNMGWYRQAPGKEMEVVAAISKRGGRTYYADSVKGRFTISRDNAKNTVYLQMNSLKPEDTAVYYCAADTGGNPKYDYWGQGTQVTVSS | high polyreactivity
QVQLVEAGGRLVQAGGSLRLSCAASGSIFYRNAMGGYRQKPGKEMELVAVITRRGGRKYYADSVKGRITISRDNAKNTVYLQMNSLIPEDTAVFYCAKRGWSDYNPIDYWGQGTPVTVSS | low polyreactivity

Sequence | polyreactivity (PSR sort gate)
QVQLVEPGGCLVQAGGSLRLSCAASGSIFAYNSMGSYRQAPGKERELVAAITISGGRTYYADSVKGRFTISRDNAKNTVYLNMNSLKPEDTAVYYCNADNARGRSGVRRYYWGQGTQVTVSS | high polyreactivity
QVQLVESAAGLVQAGASHRLSCAPSGRIFVNYAMGGYRQAPGKERELVAAITSDGSTSYADSVKGRFTISRDNAKNTVYLQMNSLKPEDSADYYCAKDFFEHSPVSLTYSSSKYDYWGQGTQVTVSS | low polyreactivity
QVQLVESAAGLVQAGGSLRLSCAASGFISPLYDMGGYRQAPGKERELVADITWRGGSTSYADSVKGRFTLSRDTAKKTGYLQMNSLKPEDTAVYYCAADARAFYYSNINGYWGQGTQVNVSS | high polyreactivity
QVQLVESAAGLVQAGGSLRLSCAASGITFYRNAMGWYRQARGNEMELGAAITWNGGRTYYADSVKGRFTISRDNAKNTVYLQMNSLKPEDTALYYCAADSGTRNLASYRYYYWGQGTQVTVSS | high polyreactivity
QVQLVESAAGLVQAGGSLRLSCAASGLNSSYYAMGWYRQAPGKERELVAAISRCGSTNYADSVKGRFTISRDNGKNTLYLQMNSLKPEDTAVYYCNADEYGGSTGRKGRYNYWGQGTQVTVSS | low polyreactivity
QVQLVESAAGLVQAGGSLRLSCAASGRIFGSYVMGWYRQAPGKERELVAAISASGGSTYYADSVKGRFTISRDNAKNTVYLQMNSLKPEDTAVYYCAATSIYTWWDLLDYWGQGTQVTVSS | high polyreactivity
QVQLVESAAGLVQAGGSLRLSCAASGRNFYYYAMGWYRQAPGKEREVVAAINWSGGGTYYADSVKGRFTISRDNAKNTVYLQMNSLKPEDTAVYYCAAGFRYRYYWGQGTQVTVSS | high polyreactivity
QVQLVESAAGLVQAGGSLRLSCAASGSILKLNAMGWYRQAPGKERELVAAISRGGRTYYADSVKGRFTISRDNAKNTVYLQMHSLKPEDTAVYYCAADACLLGPGDFNYWGQGTQVTVSS | low polyreactivity
QVQLVESAAGLVQAGGSLRLSCAASGSNFYGNAMGWYRQAPGKERELVAAIRWRGGRTYYADSVKGRFTISRDNAKNTVYLQMNSMKPEDTAVYYCNALPGVSHTQYDRVGYWGQGTQVTVSS | high polyreactivity
QVQLVESAAGLVQAGGSLRLSCAPSGIIFGSYAMGWYRQEPGKESELVAAISRGTSTYYADSVKGRFTISRDNAKNTVYLQMNSLKPEDTAVYYCAATRQQYGPLSRFVYWYYYWGQGTQVTVSS | low polyreactivity
QVQLVESAAGLVQAGGSLRLSCPASARILRYYAMGWYRQAPGKERELVAAISPRGGRTYYADSVKGRFTISRDNAKNTVYLQMNSLKPEDTAVYYCASPGYFTTPSGSYDYWGQGTQVTVSS | high polyreactivity
QVQLVESAAGLVQAGGSLSLSCAASGSILQSYAMGWYRQAPGKERELVAAISGSGGSTYYADSVKGRFTISRDNAKNTVYLQMNSLKPEDTAVYYCAKGPRYRTSRGEFGYWGQGTQVTLSS | low polyreactivity
QVQLVESAARLVQAGGSLRLSCAASGFTFKKYAMGWYRQAPGKARELVASITWSGGSTSYADSVKGRFTISRDTAKNTVYLLMNSLKPEDTAVYYCAAATFVYRLRYNRFDYWGQGTQETVSS | high polyreactivity
QVQLVESAGALVQAGGSLRLSCAASGSTYWRYTMGWYRQAPGKERELVAAISTRGGSTTYADSVKGRFTISRDNAKNTVYLQMNSLKPEDTAVYYCAAGRQYRFDFWGQGTQVTVSS | high polyreactivity
QVQLVESAGGLFQAGGSLRLSCAASGRIFGWNAMGWYIQATGKESELDAVITSGGITYYADSVKGRFTISPDNAKNTVCLQMISLKPEDTAVYYCAARGTEFYTYYRYYYWGQGTKVTVSS | high polyreactivity
QVQLVESAGGLVQAGGRLRLSCPPSGSTFAYNAMGWYRPEPGKERELVADITSGGSTKYADSVKVRFTISRDNAKNTVFLQMNSLKPEDTAVYYCAAVSVISGDFNYWGQGTEVTVSS | low polyreactivity
QVQLVESAGGLVQAGGRLSLSCAASGRTYKKYAMGWYRPEPGKERELVAAITGSGGSTYYADSVKGRFTISRDNAKNTVYLQMNSLKPEDTAVYYCAAYAYGVWDSQDGGNYWGLGTQVTVSS | low polyreactivity
QVQLVESAGGLVQAGGSHRLSCAASVLIFRYYAMGWFRQAPGKEWELFAAISNSGGGTYYADSVKGRFTISRDNAKNTVYLLMNSLIPVDTAVYYCAARHAFCFRFVSWGLGTQVTVSS | high polyreactivity
QVQLVESAGGLVQAGGSISLSCAASGIIFRYYAMGSYRQAPGKERELVAVITGRGGGTYYADSVKGRFTISRDNAKNTVYLQMNSLKPEDTAVYYCAKDFTGHYPKGFDYWGQGTQVTVSS | low polyreactivity
QVQLVESAGGLVQAGGSLRISCAASGRNFSTNAMGWYRQAPGKEMELVAAITSRGGSTYYADSVKGRFTISRDNAKNTVYLQMNSLIPEDPAVYYCAVDPLYYKTHYGTLGYYYWGQGTQVTVSS | low polyreactivity
QVQLVESAGGLVQAGGSLRITCAASGINFTFYTMGWYRQAPGKERELVAAITWSGGSTNYADSVKGRFTISRDNAKNTVYLQMNSLKPEDTAVYYCAAQGYPQSPPWEDYWGQGTQVTVSS | low polyreactivity
